Consider 1 protein from US20070191277.

For data set [1], the target named is T1, rPAI-123 (recombinant truncated porcine plasminogen activator inhibitor-1 isoform; RCL deleted, partial deletion of the heparin-binding domain).
T1 chain: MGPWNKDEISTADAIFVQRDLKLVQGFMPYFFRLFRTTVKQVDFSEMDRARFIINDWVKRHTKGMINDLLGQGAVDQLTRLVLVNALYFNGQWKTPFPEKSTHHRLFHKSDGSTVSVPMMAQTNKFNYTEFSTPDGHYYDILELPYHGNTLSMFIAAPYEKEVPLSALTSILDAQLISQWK

Data set [2] has as its target T2, rPAI-1Δ23 (recombinant truncated porcine plasminogen activator inhibitor-1 isoform; RCL deleted, heparin-binding domain deleted).
T2 chain: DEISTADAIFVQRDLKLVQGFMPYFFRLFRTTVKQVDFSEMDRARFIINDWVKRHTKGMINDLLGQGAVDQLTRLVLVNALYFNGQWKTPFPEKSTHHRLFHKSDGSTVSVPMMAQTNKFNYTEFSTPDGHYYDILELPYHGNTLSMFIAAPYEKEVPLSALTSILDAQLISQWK

B1: plasminogen (protein)
chain: EPLDDYVNTQGASLFSVTKKQLGAGSIEECAAKCEEDEEFTCRAFQYHSKEQQCVIMAENRKSSIIIRMRDVVLFEKKVYLSECKTGNGKNYRGTMSKTKNGITCQKWSSTSPHRPRFSPATHPSEGLEENYCRNPDNDPQGPWCYTTDPEKRYDYCDILECEEECMHCSGENYDGKISKTMSGLECQAWDSQSPHAHGYIPSKFPNKNLKKNYCRNPDRELRPWCFTTDPNKRWELCDIPRCTTPPPSSGPTYQCLKGTGENYRGNVAVTVSGHTCQHWSAQTPHTHNRTPENFPCKNLDENYCRNPDGKRAPWCHTTNSQVRWEYCKIPSCDSSPVSTEQLAPTAPPELTPVVQDCYHGDGQSYRGTSSTTTTGKKCQSWSSMTPHRHQKTPENYPNAGLTMNYCRNPDADKGPWCFTTDPSVRWEYCNLKKCSGTEASVVAPPPVVLLPDVETPSEEDCMFGNGKGYRGKRATTVTGTPCQDWAAQEPHRHSIFTPETNPRAGLEKNYCRNPDGDVGGPWCYTTNPRKLYDYCDVPQCAAPSFDCGKPQVEPKKCPGRVVGGCVAHPHSWPWQVSLRTRFGMHFCGGTLISPEWVLTAAHCLEKSPRPSSYKVILGAHQEVNLEPHVQEIEVSRLFLEPTRKDIALLKLSSPAVITDKVIPACLPSPNYVVADRTECFITGWGETQGTFGAGLLKEAQLPVIENKVCNRYEFLNGRVQSTELCAGHLAGGTDSCQGDSGGPLVCFEKDKYILQGVTSWGLGCARPNKPGVYVRVSRFVTWIEGVMRNN
On to B1, for which the “plasminogen cleavage (immunoblot probed for mini-plasminogen)” value in data set [1] is “the rPAI-123 recombinant protein cleaves plasminogen”; in data set [2] it was “the rPAI-1Δ23 protein did not cleave plasminogen, even when increasing concentrations of the recombinant protein were added”.
